These results are taken from paper PMC4100928, “Evolutionary Divergence in the Catalytic Activity of the CAM-1, ROR1 and ROR2 Kinase Domains” (PLoS ONE, 2014).

The target in one data set is T1, MuSK ICD (Homo sapiens, UniProt O15146).
T1 sequence (O15146 519-869): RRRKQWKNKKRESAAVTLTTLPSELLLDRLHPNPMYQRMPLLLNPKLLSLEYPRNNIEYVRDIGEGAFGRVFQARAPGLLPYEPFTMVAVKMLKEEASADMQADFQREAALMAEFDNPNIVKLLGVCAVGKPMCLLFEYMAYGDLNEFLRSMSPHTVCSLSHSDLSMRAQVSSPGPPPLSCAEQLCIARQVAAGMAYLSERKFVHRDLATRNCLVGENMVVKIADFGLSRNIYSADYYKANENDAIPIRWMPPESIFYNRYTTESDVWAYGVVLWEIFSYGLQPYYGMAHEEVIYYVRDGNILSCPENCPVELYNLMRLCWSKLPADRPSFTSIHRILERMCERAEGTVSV
Put plainly: autophosphorylation, anti-phosphotyrosine immunoblot. In kind it is biochemical. The settings on record: 2 mM ATP, 20 mM MgCl2, 0.2 mM orthovanadate, about 18 h at 4 °C.

The target of data set [1] is T2, ROR1 ICD (Homo sapiens, UniProt Q01973).
T2 sequence (Q01973 428-937): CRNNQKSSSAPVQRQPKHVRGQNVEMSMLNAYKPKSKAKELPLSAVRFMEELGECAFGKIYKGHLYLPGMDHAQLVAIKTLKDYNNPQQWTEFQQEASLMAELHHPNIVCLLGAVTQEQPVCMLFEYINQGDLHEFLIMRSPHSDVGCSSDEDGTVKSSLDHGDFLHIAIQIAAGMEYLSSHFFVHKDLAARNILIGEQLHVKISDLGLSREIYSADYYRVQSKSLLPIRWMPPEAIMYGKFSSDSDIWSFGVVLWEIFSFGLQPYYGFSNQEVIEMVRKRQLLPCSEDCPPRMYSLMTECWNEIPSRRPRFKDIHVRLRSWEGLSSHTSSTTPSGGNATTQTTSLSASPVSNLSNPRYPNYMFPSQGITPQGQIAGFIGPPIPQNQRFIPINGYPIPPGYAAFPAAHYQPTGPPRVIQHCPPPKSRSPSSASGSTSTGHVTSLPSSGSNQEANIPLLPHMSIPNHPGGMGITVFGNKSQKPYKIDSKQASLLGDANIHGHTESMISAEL
Put plainly: [gamma-32P]ATP phosphocellulose paper binding assay, initial rates. It is filed as biochemical. The settings on record: 20 mM Mg2+ or 5 mM Mn2+; 5 mM activation loop peptide; 20 °C; limit of assay. The text has this:
(§1) [gamma-32P]ATP phosphocellulose paper binding assay, initial rates on ROR1 ICD

The target in data set [2] is T3, ROR1 ICD (Homo sapiens, UniProt Q01973, C482G).
T3 sequence (Q01973 428-937 C482G): T2 sequence (Q01973 428-937) with C55G
The data set is described as above. In kind it is biochemical. The settings on record: 20 mM Mg2+ or 5 mM Mn2+; 5 mM activation loop peptide; 20 °C; limit of assay.
Source text: as §1

Substrate in data set [3]: Nc1ncnc2c1ncn2[C@@H]1O[C@H](COP(=O)(O)OP(=O)(O)OP(=O)(O)O)[C@@H](O)[C@H]1O
The data set is described as above. In kind it is biochemical, Caenorhabditis elegans. To be noted: 5 mM activation loop peptide, 20 °C. The text has this:
[gamma-32P]ATP phosphocellulose paper binding assay, initial rates on CAM-1 ICD

Substrate in data set [4]: Nc1ncnc2c1ncn2[C@@H]1O[C@H](COP(=O)(O)OP(=O)(O)OP(=O)(O)O)[C@@H](O)[C@H]1O
The data set is described as above. In kind it is biochemical, Homo sapiens. The settings on record: 20 mM Mg2+ or 5 mM Mn2+, 5 mM activation loop peptide, 20 °C, limit of assay. The text has this: [gamma-32P]ATP phosphocellulose paper binding assay, initial rates on ROR2 ICD

[5] abbreviates: phosphorylated enzyme (pre-incubated with ATP/Mg2+) 10 µM, 20 mM Mg2+.
[6] abbreviates: unphosphorylated enzyme 10 µM, 20 mM Mg2+.
[7] abbreviates: 20 mM Mg2+ or 5 mM Mn2+, limit of assay.

Numbering of substitutions follows the chain as printed. Names may count otherwise. Where only a bound is given, the exact number is not on record here.

With `Nc1ncnc2c1ncn2[C@@H]1O[C@H](COP(=O)(O)OP(=O)(O)OP(=O)(O)O)[C@@H](O)[C@H]1O` [ATP], the “autophosphorylation, anti-phosphotyrosine immunoblot” value on MuSK ICD was “ICDs of receptors ROR1, ROR2, CAM-1 and MuSK were incubated overnight”. The Michaelis-Menten constant (Km) on ROR1 ICD [1] and at ROR1 ICD [2] was above 15 mM in each case.

B1: CAM-1 ICD (Caenorhabditis elegans; K624R) (protein)
chain: RAKKKSQKTRHQNAHCSSAPSVINSAANSAYYRKLNGTSTPIMGRVPPHVEMTSLLPSAQHLGPPPYPMDQHLQQARRFPSQEPIDDNSYKVFEITPSQLSVREKIGEGQFGVVHSGIYTSGLFAPEPMAVAVRKCRHDATNAERAQLEQEIRAVATFDHPNVIKLIGVCYMDNSLLAVFEYMVHGDLHELLKVRVPPADHDMGGITEANAEFLYIATQIALGMEYLASMSFVHRDLATRNCLVGDTRTIKIADFGLMRTSYGSDYYKMLHRSWMPVRWMSKEAIEQGRFSEASDVWSFGVTLWEIWSFGRQPYEGASNQQVIELVANRHLLECPHNCPTNIYSLMVECWHENIERRPTFSEIRSRLQSWSLASPAHSILQQHNNRAGSHSGSSGAGRPPTHQRGYPSQKLHRRVEGASPLMKRHDANYAYSEDGDSD
Turning to B1, in data set [3] (20 mM Mg2+), the Km amounted to 6.69 ± 1.12 mM, the kcat came out at 0.00333 ± 0.00033 s⁻¹ and the catalytic efficiency (kcat/Km) is 0.5 M⁻¹ s⁻¹.

B2: CAM-1 ICD (Caenorhabditis elegans) (protein)
chain: B1 chain with R134K
Regarding B2, in data set [3] (setting [5]), the Km is 3.35 ± 0.57 mM, the kcat turned out to be 0.0422 ± 0.003 s⁻¹ and the kcat/Km amounted to 12.7 M⁻¹ s⁻¹. Further, in data set [3] (setting [6]), the Km came to 3.53 ± 0.34 mM, the kcat came to 0.0438 ± 0.00183 s⁻¹ and the kcat/Km turned out to be 12.5 M⁻¹ s⁻¹.

B3: CAM-1 ICD (Caenorhabditis elegans; G599C) (protein)
chain: B1 chain with G109C, R134K
Regarding B3, in data set [3] (setting [7]), the catalytic constant (kcat) was below 8.3e-06 s⁻¹ and the kcat/Km is below 0.0005 M⁻¹ s⁻¹.

B4: CAM-1 ICD (Caenorhabditis elegans; G599D) (protein)
chain: B1 chain with G109D, R134K
In the case of B4, in data set [3] (setting [7]), the kcat was below 8.3e-06 s⁻¹ and the kcat/Km was below 0.0005 M⁻¹ s⁻¹.

B5: CAM-1 ICD (Caenorhabditis elegans; D744N) (protein)
chain: B1 chain with R134K, D254N
As to B5, in data set [3] (setting [7]), the turnover number (kcat) is below 8.3e-06 s⁻¹ and the kcat/Km is below 0.0005 M⁻¹ s⁻¹.

B6: ROR2 ICD (Homo sapiens) (protein)
chain: CRNKQKASASTPQRRQLMASPSQDMEMPLINQHKQAKLKEISLSAVRFMEELGEDRFGKVYKGHLFGPAPGEQTQAVAIKTLKDKAEGPLREEFRHEAMLRARLQHPNVVCLLGVVTKDQPLSMIFSYCSHGDLHEFLVMRSPHSDVGSTDDDRTVKSALEPPDFVHLVAQIAAGMEYLSSHHVVHKDLATRNVLVYDKLNVKISDLGLFREVYAADYYKLLGNSLLPIRWMAPEAIMYGKFSIDSDIWSYGVVLWEVFSYGLQPYCGYSNQDVVEMIRNRQVLPCPDDCPAWVYALMIECWNEFPSRRPRFKDIHSRLRAWGNLSNYNSSAQTSGASNTTQTSSLSTSPVSNVSNARYVGPKQKAPPFPQPQFIPMKGQIRPMVPPPQLYVPVNGYQPVPAYGAYLPNFYPVQIPMQMAPQQVPPQMVPKPSSHHSGSGSTSTGYVTTAPSNTSMADRAALLSEGADDTQNAPEDGAQSTVQEAEEEEEGSVPETELLGDCDTLQVDEAQVQLEA
Consider B6, for which, in data set [4], the kcat was below 8.3e-06 s⁻¹ and the kcat/Km was below 0.0005 M⁻¹ s⁻¹.

B7: ROR2 ICD (Homo sapiens; D482G) (protein)
chain: B6 chain with D55G
Regarding B7, in data set [4], the kcat is below 8.3e-06 s⁻¹ and the kcat/Km was below 0.0005 M⁻¹ s⁻¹.
